In the supplement of paper PMC10724198:
± gives the standard deviation of the averaged measurements.

Tested on: Saccharomyces cerevisiae
Assay: protein stability index of tFT-peptide fusion (C-terminal peptide) (PSI (0-1 scale)); higher = more stable (slower turnover)
Conditions: genetic background: wild type; temperature: 30 C
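Further: PSI is a weighted mean of sequencing reads over stability bins, variants kept only with over 10 reads, mCherry proximal and sfGFP distal, peptide attached via GGGS linker.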

| Sequence | protein stability index |
| --- | --- |
| GLSFSAALFSAF | 0.673 ± 0.05 |
| WCGWGGVACLLL | 0.681 ± 0.023 |
| LSLRGRLNYRMM | 0.647 ± 0.011 |
| TTDKNEAHVYSR | 0.6931 ± 0.00098 |
| ALGVHGKFEWIK | 0.668 ± 0.066 |
| ELGARGGRGGGR | 0.739 ± 0.038 |
| PPLSPLAPPSHP | 0.727 ± 0.069 |
| GGCGWRGDGGGA | 0.679 ± 0.13 |
| KKKKRKGKRQPR | 0.671 ± 0.041 |
| LPFPSPLPSPPP | 0.702 ± 0.035 |
| EVSHLGLVCGHL | 0.653 ± 0.081 |
| GGGGEDQSQGPP | 0.69 ± 0.027 |
| HPPLPRPPPPPP | 0.645 ± 0.057 |
| PCSVPHSGSAPA | 0.712 ± 0.044 |
| PCASGSPRFCQR | 0.707 ± 0.025 |
| SPDLTRPPLPPP | 0.693 ± 0.015 |
| VFADHPSMHILS | 0.72 ± 0.021 |
| SSILQFSCFHGN | 0.707 ± 0.036 |
| LASSGQSWLVVF | 0.563 ± 0.011 |
| WGVGWGMVEGWR | 0.701 ± 0.019 |
| SYMCRCALDCFL | 0.643 ± 0.035 |
| PPPLPLVPPSPP | 0.651 ± 0.033 |
| PPVLVPAHHRPD | 0.651 ± 0.014 |
| EGKPALANSTVR | 0.712 ± 0.052 |
| KQDIETDKKEEG | 0.666 ± 0.13 |
| VSGVLPGALFPL | 0.684 ± 0.053 |

| Sequence | protein stability index |
| --- | --- |
| GRGGSIGEEWGG | 0.693 ± 0.021 |
| IKTKREKNGVSS | 0.722 ± 0.016 |
| CGGAVMREGQVG | 0.681 ± 0.013 |
| AGAFVGAPVGGE | 0.713 ± 0.026 |
| VFPPPLPVRRCP | 0.6551 ± 0.0031 |
| LGGGAGKRVCEG | 0.685 ± 0.014 |
| RPASPRSPIVSR | 0.726 ± 0.024 |
| HLGIKGFHIFGY | 0.69 ± 0.0071 |
| EKLVAERGMYAT | 0.684 ± 0.041 |
| PTVKVLSWLAGH | 0.703 ± 0.018 |
| SSLLPLLVPLAP | 0.723 ± 0.076 |
| RQHPPLPSFPSP | 0.759 ± 0.06 |
| EDVPRGWACRGR | 0.747 ± 0.024 |
| AGGWLRGWLGVG | 0.673 ± 0.047 |
| LPACVVVRYCRF | 0.637 ± 0.12 |
| IGLVRPSGTQQT | 0.6764 ± 0.006 |
| LSATWLKAIVYW | 0.578 ± 0.012 |
| PPAPPPPPLPSY | 0.714 ± 0.052 |
| LSSHLHCVTLFT | 0.606 ± 0.059 |
| KTKKNKKKKINK | 0.692 ± 0.075 |
| APGPCSAPSCGA | 0.67 ± 0.013 |
| GVTLKSPTGRVF | 0.666 ± 0.097 |
| ASSVVGLEERVR | 0.728 ± 0.049 |
| LIWRQEDGGPMT | 0.747 ± 0.01 |
| PAPSASPPLLRC | 0.722 ± 0.03 |
| RVLSCAFSTLWA | 0.711 ± 0.12 |

| Sequence | protein stability index |
| --- | --- |
| YLLDTLTAAREI | 0.673 ± 0.016 |
| PACPPTSDFPSL | 0.623 ± 0.073 |
| DDSHVLILKFNW | 0.691 ± 0.045 |
| SKRIKIEFYVNQ | 0.688 ± 0.12 |
| SLALPLLPPSSP | 0.739 ± 0.05 |
| VGGFVRGRVWCS | 0.696 ± 0.012 |
| TPQPPPHSTYRC | 0.702 ± 0.031 |
| VSDVIPRSRCVR | 0.6884 ± 0.0024 |
| QERWGRGWGTRG | 0.709 ± 0.072 |
| IPGSPIATARPG | 0.665 ± 0.025 |
| VQDFTFLLPLAP | 0.692 ± 0.17 |
| TCFPDLLVLPAR | 0.7008 ± 0.0022 |
| CGGGRSTAWERS | 0.63 ± 0.015 |
| PVSPCSQRGIFV | 0.692 ± 0.01 |
| GGYSNRNVEVIV | 0.6323 ± 0.003 |
| CFFGSILYLCFG | 0.5331 ± 0.0045 |
| GGSVGGGTGWRM | 0.65 ± 0.022 |
| GLCLFPAFSFPF | 0.671 ± 0.089 |
| PLLPATFLPATP | 0.74 ± 0.021 |
| PHPRPPLPLSLP | 0.697 ± 0.013 |
| PKSRSVTTSIPG | 0.691 ± 0.042 |
| VCGGRQVGWGGW | 0.684 ± 0.045 |
| KKKEHQKIKNER | 0.675 ± 0.032 |
| PFFFLWSLYFFL | 0.5096 ± 0.0038 |
| RAWPLLPTCPPP | 0.7 ± 0.019 |
| PGPDMSSVSSDY | 0.6 ± 0.11 |

| Sequence | protein stability index |
| --- | --- |
| ERIGAREQPSAT | 0.7075 ± 0.0056 |
| QESKRKDMKERN | 0.75 ± 0.049 |
| APASPSFPLSAP | 0.673 ± 0.025 |
| VEHHSKQIEKGR | 0.681 ± 0.053 |
| LDEFFIKTSANM | 0.652 ± 0.088 |
| SNQRQRETKREE | 0.677 ± 0.039 |
| WVRQYFRGLQLR | 0.595 ± 0.074 |
| TKEFKKTNTTGY | 0.7406 ± 0.0039 |
| RLAVLSLPPHPT | 0.6685 ± 0.0037 |
| DRLSSPYTLFCY | 0.571 ± 0.037 |
| TTACLLERFTRV | 0.664 ± 0.028 |
| DIEFGLSTVVCH | 0.5099 ± 0.0046 |
| CTSCDVFVFCPF | 0.708 ± 0.036 |
| RGVGGVLEVLLG | 0.5256 ± 0.0032 |
| ISGDGWNFVGIV | 0.715 ± 0.097 |
| DRLGQYSLIQRG | 0.687 ± 0.022 |
| VILTAISPAFSV | 0.647 ± 0.013 |
| SPPPSSTSTSTS | 0.688 ± 0.061 |
| RGGLRRGSGREG | 0.684 ± 0.068 |
| QKKRKKTNQKNL | 0.621 ± 0.041 |
| GYFSTFIKSSML | 0.715 ± 0.029 |
| TGEIREEWRKNI | 0.54 ± 0.03 |
| ADLAFAGGPYYG | 0.69 ± 0.067 |
| GRVGGGVEPCFV | 0.679 ± 0.021 |
| DIYGYENNIIKN | 0.708 ± 0.013 |
| QKTLKPEQVAEH | 0.68 ± 0.027 |

| Sequence | protein stability index |
| --- | --- |
| PLPAPPPPTLPD | 0.715 ± 0.065 |
| SPHTPDPTTTPH | 0.648 ± 0.097 |
| RVETYQKMTSRL | 0.757 ± 0.0092 |
| WVVSLTNSLAHV | 0.581 ± 0.013 |
| GFLSSSKSCRCH | 0.632 ± 0.059 |
| SRPSPAMFLFSP | 0.737 ± 0.1 |
| GHWTRRPSVKGK | 0.643 ± 0.0092 |
| CQWLIVEWEEKG | 0.662 ± 0.083 |
| LVRMCLFNMHFS | 0.698 ± 0.018 |
| YSASPLSCICPP | 0.652 ± 0.053 |
| IWRPGVAQSGLA | 0.7205 ± 0.0055 |
| VARPSGQRVRHA | 0.656 ± 0.085 |
| ALSRSCPSGAFL | 0.727 ± 0.01 |
| EESAHPCRREVR | 0.58988 ± 3.9e-05 |
| KQSNRYPCIHRS | 0.705 ± 0.048 |
| GVVGGVGGFFGC | 0.754 ± 0.0013 |
| GVSSGVSFVLGH | 0.702 ± 0.0083 |
| HFFSFLACFVDL | 0.632 ± 0.054 |
| RKEQRTERKSQK | 0.721 ± 0.066 |
| QASRGSLPSEIE | 0.6414 ± 0.0029 |
| VWSVDVSGCVVR | 0.641 ± 0.031 |
| PPFLLPCFPCFS | 0.494 ± 0.07 |
| LPPRPPRRPESP | 0.663 ± 0.055 |
| SAPRDLYIHFSR | 0.7371 ± 0.0014 |
| IMKQHNYIGFVF | 0.608 ± 0.062 |
| PTPPPAFGFPPP | 0.688 ± 0.16 |

| Sequence | protein stability index |
| --- | --- |
| VGFVYLTSAQVW | 0.527 ± 0.012 |
| SRIALLSLGAIL | 0.707 ± 0.028 |
| SSHYSSPAALPY | 0.696 ± 0.019 |
| LLSLMCYCWFGV | 0.5088 ± 0.0011 |
| PPTSPPLAPPPL | 0.643 ± 0.062 |
| HGWACSRSPCAV | 0.756 ± 0.048 |
| GLGGGVGGGLVV | 0.7045 ± 0.0046 |
| STPRTPNFPATA | 0.706 ± 0.019 |
| PLSGFSSPSFFP | 0.693 ± 0.025 |
| ISAPLPTLLSVL | 0.559 ± 0.041 |
| PVRFGNCPSILS | 0.7725 ± 0.0012 |
| GSWMSGLWQTPV | 0.722 ± 0.065 |
| KKKLEIKIEKRE | 0.644 ± 0.042 |
| RGFGSGTVGVQS | 0.616 ± 0.034 |
| TLAPPLPPPPLV | 0.731 ± 0.013 |
| SPVLSPLSLPPH | 0.6982 ± 0.0042 |
| KHKRKGSERKQG | 0.608 ± 0.0066 |
| SLCPVTPPSVGF | 0.656 ± 0.02 |
| PLRPRGAAPPHP | 0.6842 ± 0.0026 |
| FFSFWVGATTIE | 0.70044 ± 0.00014 |
| DLSCVPSVNLGM | 0.682 ± 0.075 |
| RLRPVLSPHAPI | 0.648 ± 0.033 |
| QHHRTSIPSSPV | 0.671 ± 0.025 |
| VESRVVGGCGDW | 0.625 ± 0.03 |
| YEQLSGHPPVVR | 0.7236 ± 0.0014 |
| TPGDAVICSFYI | 0.642 ± 0.015 |

| Sequence | protein stability index |
| --- | --- |
| YVSSYILPVTRV | 0.603 ± 0.045 |
| PFSPPLTPTFFP | 0.7052 ± 0.0057 |
| VVGDGVWCLSVG | 0.721 ± 0.046 |
| PPSPLPQPRPQT | 0.695 ± 0.014 |
| RSPPTQGQTPTT | 0.696 ± 0.028 |
| NVGEWGTAVMSR | 0.684 ± 0.034 |
| PPVPPPHASPAP | 0.709 ± 0.05 |
| GVWREVGNIEEV | 0.701 ± 0.0099 |
| VPPHLLLSLSPP | 0.635 ± 0.02 |
| PLVLSHRLPLPP | 0.703 ± 0.067 |
| LACVYEVIPGPS | 0.677 ± 0.047 |
| LMFPLPLRSFPF | 0.6931 ± 0.0014 |
| EKKEKKETTDTE | 0.693 ± 0.023 |
| PSPPPRRPPAPP | 0.666 ± 0.017 |
| AKVKIENKHRRK | 0.716 ± 0.015 |
| DNKDRFRMFRVG | 0.695 ± 0.095 |
| IYERTEENKRVN | 0.591 ± 0.0088 |
| VFCFGVRSVFLR | 0.54 ± 0.053 |
| HSTENGGCTREY | 0.646 ± 0.039 |
| EYRPPVPPPFPP | 0.579 ± 0.033 |
| WACGYLGSTILS | 0.643 ± 0.067 |
| EVEGGLSFSARG | 0.706 ± 0.074 |
| TTSGCARLSHMV | 0.709 ± 0.086 |
| FLQSRGWVCNHL | 0.655 ± 0.038 |
| LLCIPFPTRSLI | 0.803 ± 0.28 |
| GGCGSAGRGQRG | 0.697 ± 0.062 |

| Sequence | protein stability index |
| --- | --- |
| FSSFCFFLPPLN | 0.666 ± 0.034 |
| KGQGAYEGVGKE | 0.663 ± 0.019 |
| FFPATVGPFSFP | 0.731 ± 0.015 |
| QVKESDGEATKS | 0.592 ± 0.024 |
| STLEKTFRVAKR | 0.694 ± 0.011 |
| PPTFPPHSYLHP | 0.652 ± 0.043 |
| KKKQNVKSNEVG | 0.651 ± 0.096 |
| VEWLQLERDPLV | 0.741 ± 0.033 |
| PQPPPRSPPSYL | 0.75 ± 0.049 |
| SPGRVSRGNASV | 0.645 ± 0.017 |
| VRGRVGYFIVRK | 0.642 ± 0.044 |
| VTPLPHPPLPPP | 0.756 ± 0.089 |
| LGVFNRMKHSKH | 0.6702 ± 0.0029 |
| SIVSTPGATACL | 0.67281 ± 0.00029 |
| ASFPPVHPALSP | 0.664 ± 0.035 |
| GTTDVHLLLECE | 0.729 ± 0.011 |
| LHLPLPPLQLSL | 0.697 ± 0.0072 |
| KTCENKKKALRR | 0.6923 ± 0.0016 |
| DAWSFHNGATGA | 0.676 ± 0.029 |
| PPPFSPPSDLPL | 0.601 ± 0.041 |
